Laboratory results taken from patent US20240209086A1 (PETMEDIX, published 2024).
Numbering of substitutions follows the chain as printed.

B1: PMX172 in bispecific format (canine CD3 arm PMX172 x Rituximab arm, human IgG4PE knob-in-hole) (bispecific antibody)
heavy 1: EVQLVESGGDLVKPGGSLRLSCVASGFTFSSYHMSWVRQAPGKGLQWVAYSNSGGSRTSYADAVKGRFTISRDNAKNTLYLQMNSLRAEDTAVYYCASEGGGGRYGYKDYGMDYWGHGTSLFVSSASTKGPSVFPLAPCSRSTSESTAALGCLVKDYFPEPVTVSWNSGALTSGVHTFPAVLQSSGLYSLSSVVTVPSSSLGTKTYTCNVDHKPSNTKVDKRVESKYGPPCPPCPAPEFEGGPSVFLFPPKPKDTLMISRTPEVTCVVVDVSQEDPEVQFNWYVDGVEVHNAKTKPREEQFNSTYRVVSVLTVLHQDWLNGKEYKCKVSNKGLPSSIEKTISKAKGQPREPQVYTLPPSQCEMTKNQVSLSCAVKGFYPSDIAVEWESNGQPENNYKTTPPVLDSDGSFFLVSRLTVDKSRWQEGNVFSCSVMHEALHNRFTQKSLSLSLGK
light 1: SYVLTQLPSKNVTLKQPAHITCGGDNIGSKSVHWYQQKLGQAPVLIIYYDSSRPTGIPERFSGANSGNTATLTISGALAEDEADYYCQVWDSSAKAWVFGEGTQLTVLRTVAAPSVFIFPPSDEQLKSGTASVVCLLNNFYPREAKVQWKVDNALQSGNSQESVTEQDSKDSTYSLSSTLTLSKADYEKHKVYACEVTHQGLSSPVTKSFNRGEC
heavy 2: not shown
light 2: QIVLSQSPAILSASPGEKVTMTCRASSSVSYIHWFQQKPGSSPKPWIYATSNLASGVPVRFSGSGSGTSYSLTISRVEAEDAATYYCQQWTSNPPTFGGGTKLEIKRTVAAPSVFIFPPSDEQLKSGTASVVCLLNNFYPREAKVQWKVDNALQSGNSQESVTEQDSKDSTYSLSSTLTLSKADYEKHKVYACEVTHQGLSSPVTKSFNRGEC
B2: PMX189 in bispecific format (canine CD3 arm PMX189 x Rituximab arm, human IgG4PE knob-in-hole) (bispecific antibody)
heavy 1: ELTLQESGPGLVKPSQTLSLTCVVSGGSVTNNYYWNWIRQRPGRGLEWMGYWTGSTKYNPAFQGRISITADTANNQFSLHLNSMSSEDTAVYYCARDRDRRVPHAYGYWGQGTLVTVSSASTKGPSVFPLAPCSRSTSESTAALGCLVKDYFPEPVTVSWNSGALTSGVHTFPAVLQSSGLYSLSSVVTVPSSSLGTKTYTCNVDHKPSNTKVDKRVESKYGPPCPPCPAPEFEGGPSVFLFPPKPKDTLMISRTPEVTCVVVDVSQEDPEVQFNWYVDGVEVHNAKTKPREEQFNSTYRVVSVLTVLHQDWLNGKEYKCKVSNKGLPSSIEKTISKAKGQPREPQVYTLPPSQCEMTKNQVSLSCAVKGFYPSDIAVEWESNGQPENNYKTTPPVLDSDGSFFLVSRLTVDKSRWQEGNVFSCSVMHEALHNRFTQKSLSLSLGK
light 1: B1 light 1 with W97S, E101G, Q104H
heavy 2: not shown
light 2: B1 light 2
B3: PMX191 in bispecific format (canine CD3 arm PMX191 x Rituximab arm, human IgG4PE knob-in-hole) (bispecific antibody)
heavy 1: EVQLVESGGDLVKPAGSLRLSCVASGFTFSDYSMSWVRQGPEKGLQLVAGMNSDGSTTYYTDAVRGRFTISRDNAKNTMYLQMNSLRDEDTAIYYCAKGAAAPDYWGQGTLVTVSSASTKGPSVFPLAPCSRSTSESTAALGCLVKDYFPEPVTVSWNSGALTSGVHTFPAVLQSSGLYSLSSVVTVPSSSLGTKTYTCNVDHKPSNTKVDKRVESKYGPPCPPCPAPEFEGGPSVFLFPPKPKDTLMISRTPEVTCVVVDVSQEDPEVQFNWYVDGVEVHNAKTKPREEQFNSTYRVVSVLTVLHQDWLNGKEYKCKVSNKGLPSSIEKTISKAKGQPREPQVYTLPPSQCEMTKNQVSLSCAVKGFYPSDIAVEWESNGQPENNYKTTPPVLDSDGSFFLVSRLTVDKSRWQEGNVFSCSVMHEALHNRFTQKSLSLSLGK
light 1: SYELTQPPSVNVTLRETAHITCGGDRIGSKYVQWIQQIPGQAPVVIIYKDNNRPTGIPERFSGANSGNTATLTISGALAEDEADYYCQVGDNYTWVFGEGTQLTVLRTVAAPSVFIFPPSDEQLKSGTASVVCLLNNFYPREAKVQWKVDNALQSGNSQESVTEQDSKDSTYSLSSTLTLSKADYEKHKVYACEVTHQGLSSPVTKSFNRGEC
heavy 2: not shown
light 2: B1 light 2
B4: PMX192 in bispecific format (canine CD3 arm PMX192 x Rituximab arm, human IgG4PE knob-in-hole) (bispecific antibody)
heavy 1: EVQLVESGGDLVKPAGSLRLSCVASGFTFSDYSMSWVRQAPEKGLQLVAGINGDGSTTYYTDAVKGRFTISRDNAKNTVYLQMNSLRAEDTAMYYCAKGAGTGDFWGQGTLVTVSSASTKGPSVFPLAPCSRSTSESTAALGCLVKDYFPEPVTVSWNSGALTSGVHTFPAVLQSSGLYSLSSVVTVPSSSLGTKTYTCNVDHKPSNTKVDKRVESKYGPPCPPCPAPEFEGGPSVFLFPPKPKDTLMISRTPEVTCVVVDVSQEDPEVQFNWYVDGVEVHNAKTKPREEQFNSTYRVVSVLTVLHQDWLNGKEYKCKVSNKGLPSSIEKTISKAKGQPREPQVYTLPPSQCEMTKNQVSLSCAVKGFYPSDIAVEWESNGQPENNYKTTPPVLDSDGSFFLVSRLTVDKSRWQEGNVFSCSVMHEALHNRFTQKSLSLSLGK
light 1: B3 light 1 with D25A, R26S, S29R, N51S, N92S, Y93G, T94A
heavy 2: not shown
light 2: B1 light 2
B5: PMX185 in bispecific format (canine CD3 arm PMX185 x Rituximab arm, human IgG4PE knob-in-hole) (bispecific antibody)
heavy 1: EVQLVESGGDLVKPGGSLRLSCVASGFTFSSYHMSWVRQAPGKGLQWVASINSGGSRTSYVDAVKGRFTISRDNAKKTLYLQMNSLRAEDTAVYYCASGRTGPKLGLGDYGMDSWGHGTSLFVSSASTKGPSVFPLAPCSRSTSESTAALGCLVKDYFPEPVTVSWNSGALTSGVHTFPAVLQSSGLYSLSSVVTVPSSSLGTKTYTCNVDHKPSNTKVDKRVESKYGPPCPPCPAPEFEGGPSVFLFPPKPKDTLMISRTPEVTCVVVDVSQEDPEVQFNWYVDGVEVHNAKTKPREEQFNSTYRVVSVLTVLHQDWLNGKEYKCKVSNKGLPSSIEKTISKAKGQPREPQVYTLPPSQCEMTKNQVSLSCAVKGFYPSDIAVEWESNGQPENNYKTTPPVLDSDGSFFLVSRLTVDKSRWQEGNVFSCSVMHEALHNRFTQKSLSLSLGK
light 1: B1 light 1 with L45M
heavy 2: not shown
light 2: B1 light 2
B6: PMX184 in bispecific format (canine CD3 arm PMX184 x Rituximab arm, human IgG4PE knob-in-hole) (bispecific antibody)
heavy 1: ELTLQESGPGLVKPSQTLSLTCGVSGGSVTRSHYWNWVRQRPGRGLEWMGYWTGSTNYNPAFQGRISITADTAKNQFSLQLRSMTTEDTAVYFCARETTIPTFFFDYWGQGTLVTVSSASTKGPSVFPLAPCSRSTSESTAALGCLVKDYFPEPVTVSWNSGALTSGVHTFPAVLQSSGLYSLSSVVTVPSSSLGTKTYTCNVDHKPSNTKVDKRVESKYGPPCPPCPAPEFEGGPSVFLFPPKPKDTLMISRTPEVTCVVVDVSQEDPEVQFNWYVDGVEVHNAKTKPREEQFNSTYRVVSVLTVLHQDWLNGKEYKCKVSNKGLPSSIEKTISKAKGQPREPQVYTLPPSQCEMTKNQVSLSCAVKGFYPSDIAVEWESNGQPENNYKTTPPVLDSDGSFFLVSRLTVDKSRWQEGNVFSCSVMHEALHNRFTQKSLSLSLGK
light 1: B1 light 1 with S93G
heavy 2: not shown
light 2: B1 light 2
B7: PMX169 in bispecific format (canine CD3 arm PMX169 x Rituximab arm, human IgG4PE knob-in-hole) (bispecific antibody)
heavy 1: B1 heavy 1 with L4V, A24T, T28A, S30N, S31N, S51I, T58I, G103E, R104I, Y107F
light 1: B1 light 1
heavy 2: not shown
light 2: B1 light 2
B8: PMX190 in bispecific format (canine CD3 arm PMX190 x Rituximab arm, human IgG4PE knob-in-hole) (bispecific antibody)
heavy 1: EVQLVESGGDLVKPGGSLRLSCVASGFTFSSYQMSWVRQAPGKGLQWVAYISSGGGRTTYADAVRGRLTISRDNAKNTLYLQMNSLRAEDAAVYYCAREGGGEIYGYKDYGMDYWGHGTSLFVSSASTKGPSVFPLAPCSRSTSESTAALGCLVKDYFPEPVTVSWNSGALTSGVHTFPAVLQSSGLYSLSSVVTVPSSSLGTKTYTCNVDHKPSNTKVDKRVESKYGPPCPPCPAPEFEGGPSVFLFPPKPKDTLMISRTPEVTCVVVDVSQEDPEVQFNWYVDGVEVHNAKTKPREEQFNSTYRVVSVLTVLHQDWLNGKEYKCKVSNKGLPSSIEKTISKAKGQPREPQVYTLPPSQCEMTKNQVSLSCAVKGFYPSDIAVEWESNGQPENNYKTTPPVLDSDGSFFLVSRLTVDKSRWQEGNVFSCSVMHEALHNRFTQKSLSLSLGK
light 1: B1 light 1
heavy 2: not shown
light 2: B1 light 2
B9: PMX171 in bispecific format (canine CD3 arm PMX171 x Rituximab arm, human IgG4PE knob-in-hole) (bispecific antibody)
heavy 1: B1 heavy 1 with V23E, S51I, S53N, R57G, Y95F, G103K
light 1: B1 light 1
heavy 2: not shown
light 2: B1 light 2
B10: PMX170 in bispecific format (canine CD3 arm PMX170 x Rituximab arm, human IgG4PE knob-in-hole) (bispecific antibody)
heavy 1: B1 heavy 1 with N84S, Y107F
light 1: B1 light 1
heavy 2: not shown
light 2: B1 light 2
B11: PMX186 in bispecific format (canine CD3 arm PMX186 x Rituximab arm, human IgG4PE knob-in-hole) (bispecific antibody)
heavy 1: B1 heavy 1 with Q3K, F27V, S31R, H33Y, S51I, R57T, G101V, G103E, R104I, Y110F
light 1: B1 light 1 with S52R
heavy 2: not shown
light 2: B1 light 2

Assays:
[1] = molecular target: canine CD3 on canine T cells (canine PBMC) (canine, UniProt P27597 22-202); experiment: cell-based or functional assay
Sequence of canine CD3 on canine T cells (canine PBMC) (P27597 22-202 limits assumed, chain 1 of 3): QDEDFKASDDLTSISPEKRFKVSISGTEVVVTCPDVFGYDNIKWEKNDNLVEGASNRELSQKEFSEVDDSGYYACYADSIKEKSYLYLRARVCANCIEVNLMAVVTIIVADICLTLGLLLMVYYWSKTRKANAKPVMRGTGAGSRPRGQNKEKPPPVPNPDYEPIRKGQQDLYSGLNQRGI
Sequence of canine CD3 on canine T cells (canine PBMC) (chain, as listed by the source limits assumed, chain 2 of 3): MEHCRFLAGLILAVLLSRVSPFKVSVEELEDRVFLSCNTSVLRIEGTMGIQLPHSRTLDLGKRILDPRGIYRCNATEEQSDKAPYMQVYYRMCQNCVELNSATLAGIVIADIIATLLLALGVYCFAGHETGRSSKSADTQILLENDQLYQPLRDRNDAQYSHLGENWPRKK
Sequence of canine CD3 on canine T cells (canine PBMC) (chain, as listed by the source limits assumed, chain 3 of 3): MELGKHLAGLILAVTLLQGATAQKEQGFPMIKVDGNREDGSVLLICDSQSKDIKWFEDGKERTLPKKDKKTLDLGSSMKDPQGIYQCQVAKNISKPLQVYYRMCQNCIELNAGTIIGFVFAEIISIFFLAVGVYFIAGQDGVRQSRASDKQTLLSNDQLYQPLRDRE

[2] = molecular target: T1, canine CD3εδ-Fc (heterodimer of canine CD3ε-hIgG4PE-knob and canine CD3δ-hIgG4PE-hole) (canine); experiment: SPR (Biacore 8K), CD3εδ-Fc amine-coupled to CM5 chip, multi-cycle kinetics, antibody 600-7.4 nM
T1 construct: also called CD3εδ-Fc fusion protein; copies: 1 + 1
T1 sequence (chain, as listed by the source mutant limits assumed): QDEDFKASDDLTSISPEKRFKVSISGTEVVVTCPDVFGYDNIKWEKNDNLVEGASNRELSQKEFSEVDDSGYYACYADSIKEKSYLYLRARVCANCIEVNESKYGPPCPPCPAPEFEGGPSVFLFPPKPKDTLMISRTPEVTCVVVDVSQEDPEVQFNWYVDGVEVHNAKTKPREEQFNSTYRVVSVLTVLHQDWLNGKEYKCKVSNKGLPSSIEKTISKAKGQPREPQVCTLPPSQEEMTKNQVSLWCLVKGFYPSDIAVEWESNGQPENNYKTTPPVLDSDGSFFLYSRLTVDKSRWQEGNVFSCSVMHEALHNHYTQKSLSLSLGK
Description: Binding affinity of shortlisted candidates, described in Example 3, were assessed using Biacore 8K (Cytiva). Briefly, a CM5 Sensor Chip (Cytiva) was docked onto a Biacore 8K, equilibrated for 30′ at RT and then Running Buffer (10 mM HEPES pH6 150 mM NaCl 3 mM EDTA and 0.005% Tween20) was applied to the SPR chip surface. Canine CD3εδ-Fc was diluted into 10 mM acetate buffer pH4.5 and immobilised using standard amine coupling reaction. Antibodies dilutions were prepared by diluting the shortlisted candidates from 600 nM to 7.4 nM (5 concentrations with 1:3 dilutions) in running buffer and kinetics was assessed using multi-cycle kinetics method (120 sec association-300 sec dissociation). Kinetics and/or Affinity quantification was performed using Biacore Insight following standard analyses methods.

| Binder | EC50 (M) of killing potency, bispecific killing of hCD20+GFP MDCK II cells by canine PBMC [1] | Kd [2] |
| --- | --- | --- |
| B1 | 4.66e-09 M | 447 nM |
| B2 | 1.1e-08 M | 177 nM |
| B3 | 9.44e-09 M | 62.1 nM |
| B4 | 3.21e-08 M | 74.4 nM |
| B5 | 4.79e-09 M | 72.1 nM |
| B6 | 2.55e-08 M | 99.8 nM |
| B7 | 1.4e-08 M | 854 nM |
| B8 | 1e-08 M | 999 nM |
| B9 | 8.52e-09 M | 517 nM |
| B10 | 3.32e-09 M | 304 nM |
| B11 | 1.29e-08 M | 513 nM |
